Legend:
[1] = target: Aβ1-42 labelled with HiLyte Fluor 488 (UniProt P05067); assay: microscale thermophoresis (Monolith NT.115); labelled Aβ1-42 kept at 4 °C for one week (oligomers and fibres), PPP serially diluted
[2] = target: Aβ1-42 labelled with HiLyte Fluor 488 (UniProt P05067); assay: microscale thermophoresis (Monolith NT.115); HiLyte Fluor 488-labelled Aβ1-42 at 80 nM in PBS, PPP serially diluted; freshly dissolved Aβ1-42

UniProt P05067, sequence (P05067 672-713 limits assumed): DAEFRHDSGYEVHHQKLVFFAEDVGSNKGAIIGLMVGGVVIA

Work on “Aβ-binding polymer (phagocytosis-promoting peptide, PPP): small peptide chain randomly synthesized from glutamic acid, lysine, alanine and tyrosine, molecular weight 4 kD to 52 kD (average 6.5 kD)” yielded a Kd [1] of 25.4 nM and a Kd [2] of 6.6 nM.
